Assay results as given in US20110229560.

T1: NLRC5-D2, containing the LRR-R1 (aa 651-898)
T1 chain: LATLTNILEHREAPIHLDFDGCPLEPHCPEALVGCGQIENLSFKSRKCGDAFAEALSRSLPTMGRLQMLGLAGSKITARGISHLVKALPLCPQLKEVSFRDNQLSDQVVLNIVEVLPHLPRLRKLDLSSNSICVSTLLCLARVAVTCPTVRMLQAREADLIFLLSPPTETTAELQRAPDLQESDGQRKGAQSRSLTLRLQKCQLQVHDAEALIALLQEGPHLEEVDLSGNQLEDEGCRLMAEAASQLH

T2: NLRC5-D4, containing the CARD domain and LRR-R3 (aa 1-215 plus 1471-1866)
T2 chain: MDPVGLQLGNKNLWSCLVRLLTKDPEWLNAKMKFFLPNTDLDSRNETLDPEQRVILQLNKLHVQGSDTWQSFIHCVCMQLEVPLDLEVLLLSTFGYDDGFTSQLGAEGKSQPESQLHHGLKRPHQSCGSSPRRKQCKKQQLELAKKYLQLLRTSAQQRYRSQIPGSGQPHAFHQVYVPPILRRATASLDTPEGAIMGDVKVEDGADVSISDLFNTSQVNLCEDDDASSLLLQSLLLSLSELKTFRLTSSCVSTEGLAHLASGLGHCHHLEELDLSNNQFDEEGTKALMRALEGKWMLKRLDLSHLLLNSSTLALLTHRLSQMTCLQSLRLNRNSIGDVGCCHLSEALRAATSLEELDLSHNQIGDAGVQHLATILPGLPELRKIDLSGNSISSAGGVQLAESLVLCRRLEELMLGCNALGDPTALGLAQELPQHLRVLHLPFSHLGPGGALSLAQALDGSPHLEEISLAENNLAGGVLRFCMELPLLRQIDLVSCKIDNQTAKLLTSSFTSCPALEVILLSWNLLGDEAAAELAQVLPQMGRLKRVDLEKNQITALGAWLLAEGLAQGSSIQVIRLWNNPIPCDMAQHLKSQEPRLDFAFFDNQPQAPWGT

T3: NLRC5-D3, containing the link region and LRR-R2 (aa 900-1329)
T3 chain: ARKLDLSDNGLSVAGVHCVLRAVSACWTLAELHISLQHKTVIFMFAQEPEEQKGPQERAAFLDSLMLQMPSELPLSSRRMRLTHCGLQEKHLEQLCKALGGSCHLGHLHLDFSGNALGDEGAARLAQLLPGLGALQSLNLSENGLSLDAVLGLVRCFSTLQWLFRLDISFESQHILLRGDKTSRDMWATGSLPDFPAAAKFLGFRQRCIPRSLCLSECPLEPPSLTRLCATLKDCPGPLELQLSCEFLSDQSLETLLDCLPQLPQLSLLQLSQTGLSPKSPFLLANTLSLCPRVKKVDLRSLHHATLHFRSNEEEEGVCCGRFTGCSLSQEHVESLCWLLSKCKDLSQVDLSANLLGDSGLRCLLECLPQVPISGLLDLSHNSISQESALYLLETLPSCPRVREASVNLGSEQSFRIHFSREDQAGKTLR

T4: NLRC5-D1, containing the CARD and NOD domains (aa 1-517)
T4 chain: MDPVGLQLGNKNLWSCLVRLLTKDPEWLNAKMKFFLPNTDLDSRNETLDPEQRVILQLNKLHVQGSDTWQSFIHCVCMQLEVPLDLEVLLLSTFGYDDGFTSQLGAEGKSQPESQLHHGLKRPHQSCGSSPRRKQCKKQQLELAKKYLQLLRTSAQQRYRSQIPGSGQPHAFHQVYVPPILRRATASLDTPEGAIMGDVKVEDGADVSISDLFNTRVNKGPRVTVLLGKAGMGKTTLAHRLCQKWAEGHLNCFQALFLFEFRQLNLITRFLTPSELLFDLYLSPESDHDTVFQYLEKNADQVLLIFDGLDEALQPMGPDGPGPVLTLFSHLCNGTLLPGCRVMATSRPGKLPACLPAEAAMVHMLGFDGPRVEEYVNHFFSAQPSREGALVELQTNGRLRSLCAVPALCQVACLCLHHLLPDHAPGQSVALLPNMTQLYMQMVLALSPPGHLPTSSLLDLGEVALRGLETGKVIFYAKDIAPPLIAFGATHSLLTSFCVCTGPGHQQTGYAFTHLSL

B1: Flag-tagged IKKα (protein)
chain: MERPPGLRPGAGGPWEMRERLGTGGFGNVCLYQHRELDLKIAIKSCRLELSTKNRERWCHEIQIMKKLNHANVVKACDVPEELNILIHDVPLLAMEYCSGGDLRKLLNKPENCCGLKESQILSLLSDIGSGIRYLHENKIIHRDLKPENIVLQDVGGKIIHKIIDLGYAKDVDQGSLCTSFVGTLQYLAPELFENKPYTATVDYWSFGTMVFECIAGYRPFLHHLQPFTWHEKIKKKDPKCIFACEEMSGEVRFSSHLPQPNSLCSLVVEPMENWLQLMLNWDPQQRGGPVDLTLKQPRCFVLMDHILNLKIVHILNMTSAKIISFLLPPDESLHSLQSRIERETGINTGSQELLSETGISLDPRKPASQCVLDGVRGCDSYMVYLFDKSKTVYEGPFASRSLSDCVNYIVQDSKIQLPIIQLRKVWAEAVHYVSGLKEDYSRLFQGQRAAMLSLLRYNANLTKMKNTLISASQQLKAKLEFFHKSIQLDLERYSEQMTYGISSEKMLKAWKEMEEKAIHYAEVGVIGYLEDQIMSLHAEIMELQKSPYGRRQGDLMESLEQRAIDLYKQLKHRPSDHSYSDSTEMVKIIVHTVQSQDRVLKELFGHLSKLLGCKQKIIDLLPKVEVALSNIKEADNTVMFMQGKRQKEIWHLLKIACTQSSARSLVGSSLEGAVTPQTSAWLPPTSAEHDHSLSCVVTPQDGETSAQMIEENLNCLGHLSTIIHEANEEQGNSMMNLDWSWLTE
B2: Flag-tagged IKKβ (full length) (protein)
chain: MSWSPSLTTQTCGAWEMKERLGTGGFGNVIRWHNQETGEQIAIKQCRQELSPRNRERWCLEIQIMRRLTHPNVVAARDVPEGMQNLAPNDLPLLAMEYCQGGDLRKYLNQFENCCGLREGAILTLLSDIASALRYLHENRIIHRDLKPENIVLQQGEQRLIHKIIDLGYAKELDQGSLCTSFVGTLQYLAPELLEQQKYTVTVDYWSFGTLAFECITGFRPFLPNWQPVQWHSKVRQKSEVDIVVSEDLNGTVKFSSSLPYPNNLNSVLAERLEKWLQLMLMWHPRQRGTDPTYGPNGCFKALDDILNLKLVHILNMVTGTIHTYPVTEDESLQSLKARIQQDTGIPEEDQELLQEAGLALIPDKPATQCISDGKLNEGHTLDMDLVFLFDNSKITYETQISPRPQPESVSCILQEPKRNLAFFQLRKVWGQVWHSIQTLKEDCNRLQQGQRAAMMNLLRNNSCLSKMKNSMASMSQQLKAKLDFFKTSIQIDLEKYSEQTEFGITSDKLLLAWREMEQAVELCGRENEVKLLVERMMALQTDIVDLQRSPMGRKQGGTLDDLEEQARELYRRLREKPRDQRTEGDSQEMVRLLLQAIQSFEKKVRVIYTQLSKTVVCKQKALELLPKVEEVVSLMNEDEKTVVRLQEKRQKELWNLLKIACSKVRGPVSGSPDSMNASRLSQPGQLMSQPSTASNSLPEPAKKSEELVAEAHNLCTLLENAIQDTVREQDQSFTALDWSWLQTEEEEHSCLEQAS

Experiments:
[1] = target: T1, NLRC5-D2, containing the LRR-R1 (aa …)
[2] = target: T2, NLRC5-D4, containing the CARD domain …
[3] = target: T3, NLRC5-D3, containing the link region …
[4] = target: T4, NLRC5-D1, containing the CARD and NOD …

Protein	phosphorylation of IKKα [1]	phosphorylation of IKKα [2]	phosphorylation of IKKα [3]	phosphorylation of IKKα [4]	phosphorylation of IKKβ [1]	phosphorylation of IKKβ [2]	phosphorylation of IKKβ [3]	phosphorylation of IKKβ [4]
B1	NLRC5-D1, -D2 and -D4 produced little or only slight inhibition	NLRC5-D1, -D2 and -D4 produced little or only slight inhibition	NLRC5-D3 strongly inhibited IKKα and IKKβ phosphorylation	NLRC5-D1, -D2 and -D4 produced little or only slight inhibition				
B2					NLRC5-D1, -D2 and -D4 produced little or only slight inhibition	NLRC5-D1, -D2 and -D4 produced little or only slight inhibition	NLRC5-D3 strongly inhibited IKKα and IKKβ phosphorylation	NLRC5-D1, -D2 and -D4 produced little or only slight inhibition
